Consider four molecules from article PMC8592984, “Tau activates microglia via the PQBP1-cGAS-STING pathway to promote brain inflammation” (Nature Communications, 2021).

To fix the notation:
B1: Tau(198–243) of Tau 410 (domain or fragment, human, UniProt P10636-5 198-243, looked up)
chain: SSPGSPGTPGSRSRTPSLPTPPTREPKKVAVVRTPPKSPSSAKSRL
notes: human tau, splice form Tau 410, residues 198-243; numbers count on: Tau 410; pOPHLT-s has a TEV protease cleavage site after the His-tag and lipoyl domain; Isotope-labelled (15N); also called proline-rich region
B2: human PQBP1(1–94) including WWD (domain or fragment, UniProt O60828 1-94, looked up)
chain: MPLPVALQTRLAKRGILKHLEPEPEEEIIAEDYDDDPVDYEATRLEGLPPSWYKVFDPSCGLPYYWNADTDLVSWLSPHDPNSVVTKSAKKLRS
notes: human PQBP1, residues 1-94, including the WW domain (WWD); Used in SPR and in NMR; also called WWD of PQBP1; PQBP1-WWD
B3: Tau(151–197) of Tau 410 (domain or fragment, human, UniProt P10636-5 151-197, looked up)
chain: IATPRGAAPPGQKGQANATRIPAKTPPAPKTPPSSGEPPKSGDRSGY
notes: numbers count on: Tau 410; pOPHLT-s has a TEV protease cleavage site after the His-tag and lipoyl domain; Isotope-labelled (15N); also called proline-rich region
B4: human PQBP1 full-length form (PQBP1-FL) (natural protein, UniProt O60828 1-265, looked up)
chain: MPLPVALQTRLAKRGILKHLEPEPEEEIIAEDYDDDPVDYEATRLEGLPPSWYKVFDPSCGLPYYWNADTDLVSWLSPHDPNSVVTKSAKKLRSSNADAEEKLDRSHDKSDRGHDKSDRSHEKLDRGHDKSDRGHDKSDRDRERGYDKVDRERERDRERDRDRGYDKADREEGKERRHHRREELAPYPKSKKAVSRKDEELDPMDPSSYSDAPRGTWSTGLPKRNEAKTGADTTAAGPLFQQRPYPSPGAVLRANAEASRTKQQD
notes: also called full-length PQBP1

Conditions in all cases: both partners purified
Experiment [1] has as its target B2. The experiment can be described thus: NMR titration; 1H-15N HSQC of labelled tau fragments without and with PQBP1(1–94), molar ratio Tau:PQBP1(1–94) 1:5; 0.1–0.5 mM tau, 20 mM sodium phosphate pH 7.0, 20 mM NaCl, 1 mM dithiothreitol, 283 K.
For experiment [2], the target named is T1, human Tau 441 full-length protein (4R tau), SPR construct (human, UniProt P10636-8 1-441).
T1 construct: source: E. coli Rosetta(DE3)pLysS, purified (Ni-NTA agarose); not shown: His-tag, N-terminal, kept
The experiment is described as follows: SPR; Tau proteins immobilised on CM5 sensor chips at 1200 RU; PQBP1 constructs loaded at multiple doses for 120 s; equilibrium response; BIAcore J, 25 °C; 10 mM Tris-HCl pH 8.5, 150 mM NaCl, 3 mM EDTA, 0.005% Tween-20. In general terms: In SPR one partner is held on a chip, and binding of the other changes the refractive index at the surface.

Experiment [3] concerns the target T2, human Tau 410 full-length protein (3R tau), SPR construct (human, UniProt P10636-5 1-410).
T2 construct: human tau, splice form Tau 410 (a representative 3R tau), 410 residues; numbers count on: Tau 410; source: E. coli Rosetta(DE3)pLysS, purified (Ni-NTA agarose); not shown: His-tag, N-terminal, kept
The experiment is described as above.

For the next experiment, the target named is T3, Tau(244–341) of Tau 410 (human, UniProt P10636-5 244-341).
T3 construct: human tau, splice form Tau 410, residues 244-341 (repeat region); numbers count on: Tau 410; Isotope-labelled (15N); also called the repeat region
The experiment can be described thus: NMR titration; 1H-15N HSQC of labelled tau fragments without and with PQBP1(1–94), molar ratio Tau:PQBP1(1–94) 1:5; 0.1–0.5 mM tau, 20 mM sodium phosphate pH 7.0, 20 mM NaCl, 1 mM dithiothreitol, 283 K.

Another experiment concerns the target T4, Tau 410 P179A (human, UniProt P10636-5 1-410, P179A).
T4 construct: human tau, splice form Tau 410, 410 residues, with P179A; numbers count on: Tau 410; also called Tau P179A; source: E. coli Rosetta(DE3)pLysS, purified (Ni-NTA agarose); not shown: His-tag, N-terminal, kept
The experiment is described as follows: SPR; Tau proteins immobilised on CM5 sensor chips at 1200 RU; PQBP1 constructs loaded at multiple doses for 120 s; equilibrium response; BIAcore J, 25 °C; 10 mM Tris-HCl pH 8.5, 150 mM NaCl, 3 mM EDTA, 0.005% Tween-20.

In the next experiment the target is T5, Tau 410 P216A (human, UniProt P10636-5 1-410, P216A).
T5 construct: human tau, splice form Tau 410, 410 residues, with P216A; numbers count on: Tau 410; also called Tau P216A; source: E. coli Rosetta(DE3)pLysS, purified (Ni-NTA agarose); not shown: His-tag, N-terminal, kept
The description is as above.

For another experiment, the target named is T6, Tau 441 P301S (human, UniProt P10636-8 1-441, P301S).
T6 construct: also called Tau P301S; FTLD-linked disease mutant of tau; source: bought: Signal Chem (T08-56GN)
The experiment is described as above.

T2 sequence (P10636 other isoform, or with tags, fused parts or gaps): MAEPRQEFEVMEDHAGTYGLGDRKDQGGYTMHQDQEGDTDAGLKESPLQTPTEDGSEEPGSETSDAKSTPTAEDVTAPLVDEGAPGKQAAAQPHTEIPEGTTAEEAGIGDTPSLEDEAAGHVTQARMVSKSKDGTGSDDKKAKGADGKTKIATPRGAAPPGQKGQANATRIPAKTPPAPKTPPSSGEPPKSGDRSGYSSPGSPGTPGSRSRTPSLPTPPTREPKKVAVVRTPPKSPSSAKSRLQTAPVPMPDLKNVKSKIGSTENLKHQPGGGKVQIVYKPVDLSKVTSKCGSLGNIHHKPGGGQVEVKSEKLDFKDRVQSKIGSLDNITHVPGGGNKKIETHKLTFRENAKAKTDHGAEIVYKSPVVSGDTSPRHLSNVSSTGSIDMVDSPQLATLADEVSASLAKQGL
T1 sequence (P10636 other isoform, or with tags, fused parts or gaps): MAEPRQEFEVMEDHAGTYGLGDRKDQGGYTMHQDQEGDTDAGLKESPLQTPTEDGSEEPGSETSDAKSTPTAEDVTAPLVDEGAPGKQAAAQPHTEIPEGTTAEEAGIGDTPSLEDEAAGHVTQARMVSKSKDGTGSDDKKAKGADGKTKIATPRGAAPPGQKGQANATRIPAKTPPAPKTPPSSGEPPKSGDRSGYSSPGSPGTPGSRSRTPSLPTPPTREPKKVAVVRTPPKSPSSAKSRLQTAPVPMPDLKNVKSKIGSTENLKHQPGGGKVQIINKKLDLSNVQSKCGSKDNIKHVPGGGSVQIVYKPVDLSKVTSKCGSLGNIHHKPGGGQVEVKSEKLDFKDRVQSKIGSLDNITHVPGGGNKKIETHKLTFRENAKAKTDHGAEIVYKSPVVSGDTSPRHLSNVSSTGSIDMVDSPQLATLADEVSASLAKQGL
T4 sequence (P10636 other isoform, or with tags, fused parts or gaps P179A | P179A | P179A P179A): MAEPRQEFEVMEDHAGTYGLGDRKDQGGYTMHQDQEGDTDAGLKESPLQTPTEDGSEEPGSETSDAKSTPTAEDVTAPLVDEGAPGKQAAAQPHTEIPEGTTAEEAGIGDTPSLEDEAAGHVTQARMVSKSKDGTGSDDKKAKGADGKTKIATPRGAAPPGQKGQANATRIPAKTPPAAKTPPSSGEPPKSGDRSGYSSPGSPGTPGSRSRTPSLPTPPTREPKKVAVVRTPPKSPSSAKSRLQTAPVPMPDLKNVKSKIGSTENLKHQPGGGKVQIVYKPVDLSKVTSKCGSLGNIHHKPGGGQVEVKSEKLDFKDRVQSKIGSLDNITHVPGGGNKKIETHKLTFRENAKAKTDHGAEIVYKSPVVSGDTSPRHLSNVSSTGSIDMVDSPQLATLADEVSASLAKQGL
T3 sequence (P10636 other isoform, or with tags, fused parts or gaps): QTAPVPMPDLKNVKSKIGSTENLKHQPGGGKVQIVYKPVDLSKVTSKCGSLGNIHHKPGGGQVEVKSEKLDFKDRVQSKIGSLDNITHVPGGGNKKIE
T6 sequence (P10636 other isoform, or with tags, fused parts or gaps P301S | P301S | P301S P301S): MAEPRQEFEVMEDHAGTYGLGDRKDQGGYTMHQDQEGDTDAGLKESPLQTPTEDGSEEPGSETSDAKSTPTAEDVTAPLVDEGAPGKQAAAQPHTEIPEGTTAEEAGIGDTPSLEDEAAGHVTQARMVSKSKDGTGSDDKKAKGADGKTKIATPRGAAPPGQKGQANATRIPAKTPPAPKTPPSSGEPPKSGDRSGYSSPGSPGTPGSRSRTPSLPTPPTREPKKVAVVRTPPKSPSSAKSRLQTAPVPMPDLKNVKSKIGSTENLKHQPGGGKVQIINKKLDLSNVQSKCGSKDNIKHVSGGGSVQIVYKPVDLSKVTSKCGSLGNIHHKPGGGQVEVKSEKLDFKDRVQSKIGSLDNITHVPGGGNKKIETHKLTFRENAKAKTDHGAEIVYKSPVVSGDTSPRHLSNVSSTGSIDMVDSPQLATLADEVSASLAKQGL
T5 sequence (P10636 other isoform, or with tags, fused parts or gaps P216A | P216A | P216A P216A): as the sequence (P10636 other isoform, or with tags, fused parts or gaps P179A | P179A | P179A P179A) above, with A179P, P216A counted along it

Regarding B1, the binding result in experiment [1] is reported as “binds”.
As to B2, the binding result (in experiment [2]; in experiment [3]; with Tau(244–341) of Tau 410) was “binds” throughout.
Take B3: in experiment [1], the binding result is “binds”.
Regarding B4, the binding result (in experiment [2]; with Tau 410 P179A; with Tau 410 P216A; in experiment [3]; with Tau 441 P301S) was “binds” each time.
